Experimental findings from article PMC6458997 are described below.

In series [1] the target is T1, AimR (phi3T) (Bacillus phage phi3T, UniProt P0DOE3 1-378).
T1 sequence: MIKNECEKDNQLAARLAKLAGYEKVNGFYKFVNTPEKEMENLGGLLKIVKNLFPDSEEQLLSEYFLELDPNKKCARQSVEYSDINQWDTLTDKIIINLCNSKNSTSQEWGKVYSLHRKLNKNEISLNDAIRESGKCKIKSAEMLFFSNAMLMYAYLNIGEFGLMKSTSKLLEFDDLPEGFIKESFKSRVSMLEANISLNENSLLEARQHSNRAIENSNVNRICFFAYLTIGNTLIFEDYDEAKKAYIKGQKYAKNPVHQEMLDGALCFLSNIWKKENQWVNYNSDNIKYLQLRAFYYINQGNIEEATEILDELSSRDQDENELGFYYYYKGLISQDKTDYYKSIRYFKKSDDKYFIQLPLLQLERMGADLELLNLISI
As to the kind of experiment: EMSA; EMSA: 50 mM HEPES pH 7.5, 5 mM MgCl2, 75 mM NaCl, 0.5 mM EDTA; 0.4 uM DNA, 4 uM AimR; 10 min at room temperature; 8% PAGE in TBE at 4 C or agarose in TAE at room temperature. To be noted: protein: recombinant; tags: N-terminal 6xHis; same purification protocol as SPbeta AimR.

Series [2] has as its target T2, AimR (SPbeta) (Bacillus subtilis phage SPbeta (cloned …, UniProt O31927 1-386)).
T2 sequence: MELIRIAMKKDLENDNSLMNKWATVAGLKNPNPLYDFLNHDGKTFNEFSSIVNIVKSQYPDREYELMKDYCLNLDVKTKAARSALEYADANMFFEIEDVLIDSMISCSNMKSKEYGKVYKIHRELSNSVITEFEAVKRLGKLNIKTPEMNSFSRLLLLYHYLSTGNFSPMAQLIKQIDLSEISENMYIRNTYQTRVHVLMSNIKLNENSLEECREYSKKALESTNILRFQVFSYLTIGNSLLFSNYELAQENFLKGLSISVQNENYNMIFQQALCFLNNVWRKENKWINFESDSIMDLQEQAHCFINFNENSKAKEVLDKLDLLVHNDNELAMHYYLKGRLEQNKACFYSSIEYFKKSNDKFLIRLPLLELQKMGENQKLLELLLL
Briefly: X-ray crystallography; 2.2 A; 200 mM MgCl2, pH 7.5; AimR:DNA 2:1; EMSA: 50 mM HEPES pH 7.5, 5 mM MgCl2, 75 mM NaCl, 0.5 mM EDTA; 0.4 uM DNA, 4 uM AimR; 10 min at room temperature; 8% PAGE in TBE at 4 C or agarose in TAE at room temperature. To be noted: protein: recombinant; tags: N-terminal 6xHis-TEV, cleaved; chain copies: 2.

For series [3], the target named is T2, AimR (SPbeta). As to the kind of experiment: EMSA; apo; EMSA: 50 mM HEPES pH 7.5, 5 mM MgCl2, 75 mM NaCl, 0.5 mM EDTA; 0.4 uM DNA, 4 uM AimR; 10 min at room temperature; 8% PAGE in TBE at 4 C or agarose in TAE at room temperature. To be noted: protein: recombinant; tags: N-terminal 6xHis-TEV, cleaved; chain copies: 2.

B1: phi3T operator 37 bp (dsDNA)
DNA 1: ATGTTCCAGAAATTCAAAAATCAAAAAATAAGAACAT
DNA 2: ATGTTCTTATTTTTTGATTTTTGAATTTCTGGAACAT
Consider B1, for which the binding result in series [1] was “binds”.

B2: crystal operator 43 bp (dsDNA)
DNA 1: TTGATCACTAGATGTTATTAAAACCTAATATTTAAGTGATGGC
DNA 2: GCCATCACTTAAATATTAGGTTTTAATAACATCTAGTGATCAA
For the molecule B2, the binding result in series [2] is “binds”.

B3: SPbeta operator WT 45 bp (dsDNA)
DNA 1: GTTGATCACTAGATGTTATTAAAACCTAATATTTAAGTGATGGCC
DNA 2: GGCCATCACTTAAATATTAGGTTTTAATAACATCTAGTGATCAAC
For B3, in series [3], the binding result is on record as “binds”.
